Data taken from patent US20150315556.

Legend:
[1] = target: T1, GLA2 rationally-designed meganuclease (I-CreI derivative)
T1 chain: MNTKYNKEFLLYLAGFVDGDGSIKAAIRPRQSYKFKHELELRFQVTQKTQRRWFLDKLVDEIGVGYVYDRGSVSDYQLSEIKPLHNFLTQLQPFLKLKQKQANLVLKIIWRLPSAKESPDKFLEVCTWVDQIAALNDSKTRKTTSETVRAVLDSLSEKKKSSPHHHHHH

[2] = target: T2, BRP2 rationally-designed meganuclease (I-CreI derivative)
T2 chain: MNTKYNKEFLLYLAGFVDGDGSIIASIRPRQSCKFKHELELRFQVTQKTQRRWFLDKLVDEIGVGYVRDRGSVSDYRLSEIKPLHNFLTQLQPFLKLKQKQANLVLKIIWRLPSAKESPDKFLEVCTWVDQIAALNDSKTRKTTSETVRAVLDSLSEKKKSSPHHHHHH

[3] = target: T3, ANT2 rationally-designed meganuclease (I-CreI derivative)
T3 chain: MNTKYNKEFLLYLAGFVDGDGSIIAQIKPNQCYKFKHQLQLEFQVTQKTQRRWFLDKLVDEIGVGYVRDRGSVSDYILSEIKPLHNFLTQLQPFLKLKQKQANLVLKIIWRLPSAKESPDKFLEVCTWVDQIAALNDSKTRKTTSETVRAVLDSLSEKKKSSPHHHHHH

[4] = target: T4, LAM2 rationally-designed meganuclease (I-CreI derivative)
T4 chain: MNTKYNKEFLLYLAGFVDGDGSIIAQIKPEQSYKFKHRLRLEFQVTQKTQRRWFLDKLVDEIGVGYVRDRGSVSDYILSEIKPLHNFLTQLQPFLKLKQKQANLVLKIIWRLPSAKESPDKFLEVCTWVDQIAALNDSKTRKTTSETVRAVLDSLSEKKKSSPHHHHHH

[5] = target: T5, PDX2 rationally-designed meganuclease (I-CreI derivative)
T5 chain: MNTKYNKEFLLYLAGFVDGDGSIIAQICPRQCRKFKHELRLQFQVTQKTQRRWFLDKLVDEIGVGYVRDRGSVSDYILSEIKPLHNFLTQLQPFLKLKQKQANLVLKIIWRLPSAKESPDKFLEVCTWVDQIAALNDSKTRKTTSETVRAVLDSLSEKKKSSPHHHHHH

[6] = target: T6, ACH2 rationally-designed meganuclease (I-CreI derivative)
T6 chain: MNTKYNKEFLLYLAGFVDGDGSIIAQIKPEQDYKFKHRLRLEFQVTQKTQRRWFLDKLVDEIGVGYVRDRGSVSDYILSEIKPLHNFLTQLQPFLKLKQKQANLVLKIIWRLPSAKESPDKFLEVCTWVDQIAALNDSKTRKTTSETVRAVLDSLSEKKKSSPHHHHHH

[7] = target: T7, MGC2 rationally-designed meganuclease (I-CreI derivative)
T7 chain: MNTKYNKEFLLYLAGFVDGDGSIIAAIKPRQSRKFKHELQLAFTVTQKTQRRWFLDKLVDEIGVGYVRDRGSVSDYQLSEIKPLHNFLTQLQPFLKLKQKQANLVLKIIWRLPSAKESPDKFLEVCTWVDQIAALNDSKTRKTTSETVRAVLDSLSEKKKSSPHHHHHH

[8] = target: T8, URA2 rationally-designed meganuclease (I-CreI derivative)
T8 chain: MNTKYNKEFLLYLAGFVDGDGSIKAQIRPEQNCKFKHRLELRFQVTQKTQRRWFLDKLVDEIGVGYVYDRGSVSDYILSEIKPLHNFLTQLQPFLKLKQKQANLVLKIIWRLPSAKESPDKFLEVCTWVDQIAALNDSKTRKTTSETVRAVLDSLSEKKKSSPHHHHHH

[9] = target: T9, CF2 rationally-designed meganuclease (I-CreI derivative)
T9 chain: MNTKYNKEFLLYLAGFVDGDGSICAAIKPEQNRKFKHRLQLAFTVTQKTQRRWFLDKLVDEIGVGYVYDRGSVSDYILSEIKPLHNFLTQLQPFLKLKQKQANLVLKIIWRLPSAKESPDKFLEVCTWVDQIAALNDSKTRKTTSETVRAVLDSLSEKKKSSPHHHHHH

[10] = target: T10, HGH2 rationally-designed meganuclease (I-CreI derivative; partner of CYP, half-site SEQ ID NO: 76)
T10 chain: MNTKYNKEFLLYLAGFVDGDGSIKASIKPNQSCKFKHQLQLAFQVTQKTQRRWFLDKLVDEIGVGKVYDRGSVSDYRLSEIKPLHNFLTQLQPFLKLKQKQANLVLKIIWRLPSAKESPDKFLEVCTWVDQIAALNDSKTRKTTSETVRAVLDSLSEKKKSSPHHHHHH

[11] = target: T11, LAM2 variant in which glutamic acids at positions 8 and 61 were changed to lysine
T11 chain: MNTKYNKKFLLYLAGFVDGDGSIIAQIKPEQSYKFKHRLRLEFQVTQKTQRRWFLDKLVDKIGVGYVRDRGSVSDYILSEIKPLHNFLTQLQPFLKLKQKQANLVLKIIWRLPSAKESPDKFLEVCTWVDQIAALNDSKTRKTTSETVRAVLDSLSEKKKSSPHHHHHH

[12] = target: T12, HGH2 rationally-designed meganuclease (I-CreI derivative; partner of HGH1, half-site SEQ ID NO: 56)
T12 chain: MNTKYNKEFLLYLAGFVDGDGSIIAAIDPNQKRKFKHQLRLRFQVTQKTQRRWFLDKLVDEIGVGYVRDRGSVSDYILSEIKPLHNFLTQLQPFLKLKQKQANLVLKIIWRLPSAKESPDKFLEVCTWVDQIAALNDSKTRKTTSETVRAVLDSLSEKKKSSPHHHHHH

B1: GLA1 rationally-designed meganuclease (I-CreI derivative) (protein)
chain: MNTKYNKEFLLYLAGFVDGDGSIKAAIKPRQSYKFKHELSLAFQVTQKTQRRWFLDKLVDEIGVGYVYDRGSVSDYQLCEIKPLHNFLTQLQPFLKLKQKQANLVLKIIWRLPSAKESPDKFLEVCTWVDQIAALNDSKTRKTTSETVRAVLDSLSEKKKSSPHHHHHH
[1]
  cleavage of a linearized DNA substrate containing the intended non-palindromic recognition sequence by the 1:1 mixture: each rationally-designed meganuclease heterodimer cleaves its intended DNA site

B2: BRP1 rationally-designed meganuclease (I-CreI derivative) (protein)
chain: MNTKYNKEFLLYLAGFVDGDGSIKAQIRPRQCRKFKHELELAFQVTQKTQRRWFLDKLVDEIGVGKVYDRGSVSDYELSEIKPLHNFLTQLQPFLKLKQKQANLVLKIIWRLPSAKESPDKFLEVCTWVDQIAALNDSKTRKTTSETVRAVLDSLSEKKKSSPHHHHHH
[2]
  cleavage of a linearized DNA substrate containing the intended non-palindromic recognition sequence by the 1:1 mixture: each rationally-designed meganuclease heterodimer cleaves its intended DNA site

B3: ANT1 rationally-designed meganuclease (I-CreI derivative) (protein)
chain: MNTKYNKEFLLYLAGFVDGDGSIIAQIAPNQNCKFKHQLQLRFQVTQKTQRRWFLDKLVDEIGVGYVRDRGSVSDYILSEIKPLHNFLTQLQPFLKLKQKQANLVLKIIWRLPSAKESPDKFLEVCTWVDQIAALNDSKTRKTTSETVRAVLDSLSEKKKSSPHHHHHH
[3]
  cleavage of a linearized DNA substrate containing the intended non-palindromic recognition sequence by the 1:1 mixture: each rationally-designed meganuclease heterodimer cleaves its intended DNA site

B4: LAM1 rationally-designed meganuclease (I-CreI derivative) (protein)
chain: MNTKYNKEFLLYLAGFVDGDGSIIAQIDPRQCRKFKHELRLRFQVTQKTQRRWFLDKLVDEIGVGYVRDRGSVSDYILSEIKPLHNFLTQLQPFLKLKQKQANLVLKIIWRLPSAKESPDKFLEVCTWVDQIAALNDSKTRKTTSETVRAVLDSLSEKKKSSPHHHHHH
[4]
  cleavage of the non-palindromic LAM1/LAM2 hybrid DNA site by a 1:1 mixture incubated at 42 C for 20 minutes: The 1:1 mixture of LAM1 and LAM2, however, cleaves all three DNA sites
  cleavage of the non-palindromic LAM1/LAM2 hybrid DNA site by the co-expressed enzyme mixture: The co-expressed enzyme mixture was found to cleave all three sites, including the LAM1/LAM2 hybrid site

B5: PDX1 rationally-designed meganuclease (I-CreI derivative) (protein)
chain: MNTKYNKEFLLYLAGFVDGDGSIIAQIKPNQNCKFKHQLQLAFQVTQKTQRRWFLDKLVDEIGVGYVRDRGSVSDYILSEIKPLHNFLTQLQPFLKLKQKQANLVLKIIWRLPSAKESPDKFLEVCTWVDQIAALNDSKTRKTTSETVRAVLDSLSEKKKSSPHHHHHH
[5]
  cleavage of a linearized DNA substrate containing the intended non-palindromic recognition sequence by the 1:1 mixture: each rationally-designed meganuclease heterodimer cleaves its intended DNA site

B6: ACH1 rationally-designed meganuclease (I-CreI derivative) (protein)
chain: MNTKYNKEFLLYLAGFVDGDGSIIAAIDPEQDCKFKHRLRLRFQVTQKTQRRWFLDKLVDEIGVGYVRDRGSVSDYQLSEIKPLHNFLTQLQPFLKLKQKQANLVLKIIWRLPSAKESPDKFLEVCTWVDQIAALNDSKTRKTTSETVRAVLDSLSEKKKSSPHHHHHH
[6]
  cleavage of a linearized DNA substrate containing the intended non-palindromic recognition sequence by the 1:1 mixture: each rationally-designed meganuclease heterodimer cleaves its intended DNA site

B7: MGC1 rationally-designed meganuclease (I-CreI derivative) (protein)
chain: MNTKYNKEFLLYLAGFVDGDGSIKAQIKPNQCYKFKHQLQLAFQVTQKTQRRWFLDKLVDEIGVGYVYDRGSVSDYILSEIKPLHNFLTQLQPFLKLKQKQANLVLKIIWRLPSAKESPDKFLEVCTWVDQIAALNDSKTRKTTSETVRAVLDSLSEKKKSSPHHHHHH
[7]
  cleavage of a linearized DNA substrate containing the intended non-palindromic recognition sequence by the 1:1 mixture: each rationally-designed meganuclease heterodimer cleaves its intended DNA site

B8: URA1 rationally-designed meganuclease (I-CreI derivative) (protein)
chain: MNTKYNKEFLLYLAGFVDGDGSIIAQIKPNQSCKFKHQLRLAFTVTQKTQRRWFLDKLVDEIGVGYVRDRGSVSDYILSEIKPLHNFLTQLQPFLKLKQKQANLVLKIIWRLPSAKESPDKFLEVCTWVDQIAALNDSKTRKTTSETVRAVLDSLSEKKKSSPHHHHHH
[8]
  cleavage of a linearized DNA substrate containing the intended non-palindromic recognition sequence by the 1:1 mixture: each rationally-designed meganuclease heterodimer cleaves its intended DNA site

B9: CF1 rationally-designed meganuclease (I-CreI derivative) (protein)
chain: MNTKYNKEFLLYLAGFVDGDGSICAQIKPNQSYKFKHQLQLAFQVTQKTQRRWFLDKLVDEIGVGYVHDRGSVSDYILSEIKPLHNFLTQLQPFLKLKQKQANLVLKIIWRLPSAKESPDKFLEVCTWVDQIAALNDSKTRKTTSETVRAVLDSLSEKKKSSPHHHHHH
[9]
  cleavage of a linearized DNA substrate containing the intended non-palindromic recognition sequence by the 1:1 mixture: each rationally-designed meganuclease heterodimer cleaves its intended DNA site

B10: CYP rationally-designed meganuclease (I-CreI derivative) (protein)
chain: MNTKYNKEFLLYLAGFVDGDGSIIAAIKPNQDYKFKHQLRLAFQVTQKTQRRWFLDKLVDEIGVGYVYDRGSVSDYQLSEIKPLHNFLTQLQPFLKLKQKQANLVLKIIWRLPSAKESPDKFLEVCTWVDQIAALNDSKTRKTTSETVRAVLDSLSEKKKSSPHHHHHH
[10]
  cleavage of a linearized DNA substrate containing the intended non-palindromic recognition sequence by the 1:1 mixture: each rationally-designed meganuclease heterodimer cleaves its intended DNA site

B11: LAM1 variant in which lysines at positions 7, 57 and 96 were changed to glutamic acids (protein)
chain: MNTKYNEEFLLYLAGFVDGDGSIIAQIDPRQCRKFKHELRLRFQVTQKTQRRWFLDELVDEIGVGYVRDRGSVSDYILSEIKPLHNFLTQLQPFLELKQKQANLVLKIIWRLPSAKESPDKFLEVCTWVDQIAALNDSKTRKTTSETVRAVLDSLSEKKKSSPHHHHHH
[11]
  cleavage of the LAM1/LAM2 hybrid site against the two palindromic sites by the co-expressed interface variants: the LAM1/LAM2 hybrid site was found to be cleaved preferentially over the two palindromic sites

B12: HGH1 rationally-designed meganuclease (I-CreI derivative) (protein)
chain: MNTKYNKEFLLYLAGFVDGDGSIIAQIDPNQDCKFKHQLRLRFQVTQKTQRRWFLDKLVDEIGVGYVRDRGSVSDYILSEIKPLHNFLTQLQPFLKLKQKQANLVLKIIWRLPSAKESPDKFLEVCTWVDQIAALNDSKTRKTTSETVRAVLDSLSEKKKSSPHHHHHH
[12]
  cleavage of a linearized DNA substrate containing the intended non-palindromic recognition sequence by the 1:1 mixture: each rationally-designed meganuclease heterodimer cleaves its intended DNA site
